Data reported in publication PMC5100602, “RNA regulators responding to ribosomal protein S15 are frequent in sequence space”.
Positions count from the first letter of the chain named.

Experiments:
[1] = molecular target: T1, Gk-S15 (ribosomal protein S15) (Geobacillus kaustophilus, UniProt Q5L0I3 1-89); assay: filter binding; Fmax 0.56; text says abolished; SELEX Binding Buffer A: 50 mM Tris/acetate pH 7.5, 20 mM Mg-acetate, 270 mM KCl, 5 mM DTT, 0.02% BSA, 25 C, 30 min; filter binding (nitrocellulose/nylon) as previously described; conditions: protein: recombinant; tags: expressed from pET-HT; label: 5'-32P; H1 disrupted
[2] = molecular target: T1, Gk-S15 (ribosomal protein S15); assay: filter binding; Fmax 0.85; SELEX Binding Buffer A: 50 mM Tris/acetate pH 7.5, 20 mM Mg-acetate, 270 mM KCl, 5 mM DTT, 0.02% BSA, 25 C, 30 min; filter binding (nitrocellulose/nylon) as previously described; conditions: protein: recombinant; tags: expressed from pET-HT; label: 5'-32P; H1 restored
[3] = molecular target: T1, Gk-S15 (ribosomal protein S15); assay: filter binding; Fmax 70%; SELEX Binding Buffer A: 50 mM Tris/acetate pH 7.5, 20 mM Mg-acetate, 270 mM KCl, 5 mM DTT, 0.02% BSA, 25 C, 30 min; filter binding (nitrocellulose/nylon) as previously described; conditions: protein: recombinant; tags: expressed from pET-HT; label: 5'-32P; helices H1-H3
[4] = molecular target: T2, Tt-S15 (ribosomal protein S15) (Thermus thermophilus, UniProt Q5SJ76 1-89); assay: filter binding; Fmax 78%; SELEX Binding Buffer A: 50 mM Tris/acetate pH 7.5, 20 mM Mg-acetate, 270 mM KCl, 5 mM DTT, 0.02% BSA, 25 C, 30 min; filter binding (nitrocellulose/nylon) as previously described; conditions: protein: recombinant; tags: expressed from pET-HT; label: 5'-32P; helices H1-H3
T2 sequence (Q5SJ76 whole entry): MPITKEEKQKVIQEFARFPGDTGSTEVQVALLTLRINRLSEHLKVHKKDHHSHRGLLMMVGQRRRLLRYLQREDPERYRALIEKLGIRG

[5] = molecular target: T1, Gk-S15 (ribosomal protein S15); assay: filter binding; Fmax 0.71; SELEX Binding Buffer A: 50 mM Tris/acetate pH 7.5, 20 mM Mg-acetate, 270 mM KCl, 5 mM DTT, 0.02% BSA, 25 C, 30 min; filter binding (nitrocellulose/nylon) as previously described; conditions: protein: recombinant; tags: expressed from pET-HT; label: 5'-32P; H2 disrupted
[6] = molecular target: T1, Gk-S15 (ribosomal protein S15); assay: filter binding; Fmax 44%; poor 1:1 fit; SELEX Binding Buffer A: 50 mM Tris/acetate pH 7.5, 20 mM Mg-acetate, 270 mM KCl, 5 mM DTT, 0.02% BSA, 25 C, 30 min; filter binding (nitrocellulose/nylon) as previously described; conditions: protein: recombinant; tags: expressed from pET-HT; label: 5'-32P
[7] = molecular target: T1, Gk-S15 (ribosomal protein S15); assay: filter binding; Fmax 21%; SELEX Binding Buffer A: 50 mM Tris/acetate pH 7.5, 20 mM Mg-acetate, 270 mM KCl, 5 mM DTT, 0.02% BSA, 25 C, 30 min; filter binding (nitrocellulose/nylon) as previously described; conditions: protein: recombinant; tags: expressed from pET-HT; label: 5'-32P
[8] = molecular target: T1, Gk-S15 (ribosomal protein S15); assay: filter binding; Fmax 40%; SELEX Binding Buffer A: 50 mM Tris/acetate pH 7.5, 20 mM Mg-acetate, 270 mM KCl, 5 mM DTT, 0.02% BSA, 25 C, 30 min; filter binding (nitrocellulose/nylon) as previously described; conditions: protein: recombinant; tags: expressed from pET-HT; label: 5'-32P
[9] = molecular target: T2, Tt-S15 (ribosomal protein S15); assay: filter binding; Fmax 25%; SELEX Binding Buffer A: 50 mM Tris/acetate pH 7.5, 20 mM Mg-acetate, 270 mM KCl, 5 mM DTT, 0.02% BSA, 25 C, 30 min; filter binding (nitrocellulose/nylon) as previously described; conditions: protein: recombinant; tags: expressed from pET-HT; label: 5'-32P
[10] = molecular target: T1, Gk-S15 (ribosomal protein S15); assay: filter binding; Fmax 79%; SELEX Binding Buffer A: 50 mM Tris/acetate pH 7.5, 20 mM Mg-acetate, 270 mM KCl, 5 mM DTT, 0.02% BSA, 25 C, 30 min; filter binding (nitrocellulose/nylon) as previously described; conditions: protein: recombinant; tags: expressed from pET-HT; label: 5'-32P
[11] = molecular target: T1, Gk-S15 (ribosomal protein S15); assay: filter binding; Fmax 55%; SELEX Binding Buffer A: 50 mM Tris/acetate pH 7.5, 20 mM Mg-acetate, 270 mM KCl, 5 mM DTT, 0.02% BSA, 25 C, 30 min; filter binding (nitrocellulose/nylon) as previously described; conditions: protein: recombinant; tags: expressed from pET-HT; label: 5'-32P
[12] = molecular target: T1, Gk-S15 (ribosomal protein S15); assay: filter binding; Fmax 0.36; SELEX Binding Buffer A: 50 mM Tris/acetate pH 7.5, 20 mM Mg-acetate, 270 mM KCl, 5 mM DTT, 0.02% BSA, 25 C, 30 min; filter binding (nitrocellulose/nylon) as previously described; conditions: protein: recombinant; tags: expressed from pET-HT; label: 5'-32P

B1: 11-1-M2 (structured_RNA)
RNA: UUGGUAACGUACACUUCCUUCGCUUAUUCGGAGUAGAUCACGUGAUCAUUCUGUAUGCUUUGGAGUUUUAAAAUGUCUCUAAGUACUGAAGCAACAGCU
In the case of B1, the Kd [1] is reported as 56.5 ± 5.74 nM.

B2: 11-1-M3 (structured_RNA)
RNA: B1 RNA with G9C, U10G
With B2 the Kd [2] was 20.9 ± 6.3 nM.

B3: 11-1 (structured_RNA)
RNA: B1 RNA with U2G, G3C
Binder B3 has a Kd [3] of 0.9 ± 0.02 nM and a Kd [4] of 94.9 ± 22.5 nM.

B4: 11-1-M8 (structured_RNA)
RNA: B1 RNA with U2G, G3C, A64U, G65C
In the case of B4, the Kd [5] is reported as 84.5 ± 14.5 nM.

B5: 11-5 (structured_RNA)
RNA: UGCGUAACGUACACUAAAGACGGAAGGCCAAAACCUAUGCUUACCCUUUACUUUGGAGUUUUAAAAUGUCUCUAAGUACUGAAGCAACAGCU
Binder B5 has a Kd [6] of 10 ± 1.4 nM.

B6: 11-4 (structured_RNA)
RNA: UGCGUAACGUACACUGAACAAUCCCAGCGCUCUAUGGAAUCUGCAUCAUCUAUUCUUUGGAGUUUAAAUGUCUCUAAGUACUGAAGCAACAGCU
For B6, the Kd [7] was 8.5 ± 2 nM.

B7: 11-3 (structured_RNA)
RNA: UGCGUAACGUACACUCCGAUGUUACCCGCGCGAGGUCAUUGGUACUCAAUCUAUAUACUUUGGAGUUUUAAAUGUCUCUAAGUACUGAAGCAACAGCU
B7 was tested, and the Kd [8] was 20.7 ± 15.2 nM.

B8: 11-2 (structured_RNA)
RNA: UGCGUAACGUACACUCCCUACUCGUGGAUUGGACUCUAUAAUAGAUCAUUCUAUAUACUGUGGAGCUUAAAAUGUCUCUAAGUACUGAAGCAACAGCU
Work on B8 yielded a Kd [9] of 39 ± 6.27 nM and a Kd [10] of 9.7 ± 1.6 nM.

B9: 11-6 (structured_RNA)
RNA: UGCGUAACGUACACUGAAGACCGCGAACUACAAACGUAACUCGGUUCAUUCUAUAUACUUUAGAGUUUUAAAAUGUCUCUAAGUACUGAAGCAACAGCU
Binder B9 has a Kd [11] of 289 ± 121 nM.

B10: 11-1-M4 (structured_RNA)
RNA: UGCGUAACGUACACUUCCUUCGCUUAUUCGGAGUAGAUCACGUGAUCAUUCUGUAUGCUUUGGAG
In the case of B10, the Kd [12] is reported as 7.7 ± 5.89 nM.
